# In IntAct's records for PubMed 20840750:
# B1: Cryptochrome-2 (Mus musculus), Q9R194 (parent)
# chain: MAAAAVVAATVPAQSMGADGASSVHWFRKGLRLHDNPALLAAVRGARCVRCVYILDPWFAASSSVGINRWRFLLQSLEDLDTSLRKLNSRLFVVRGQPADVFPRLFKEWGVTRLTFEYDSEPFGKERDAAIMKMAKEAGVEVVTENSHTLYDLDRIIELNGQKPPLTYKRFQALISRMELPKKPAVAVSSQQMESCRAEIQENHDDTYGVPSLEELGFPTEGLGPAVWQGGETEALARLDKHLERKAWVANYERPRMNANSLLASPTGLSPYLRFGCLSCRLFYYRLWDLYKKVKRNSTPPLSLFGQLLWREFFYTAATNNPRFDRMEGNPICIQIPWDRNPEALAKWAEGKTGFPWIDAIMTQLRQEGWIHHLARHAVACFLTRGDLWVSWESGVRVFDELLLDADFSVNAGSWMWLSCSAFFQQFFHCYCPVGFGRRTDPSGDYIRRYLPKLKGFPSRYIYEPWNAPESVQKAAKCIIGVDYPRPIVNHAETSRLNIERMKQIYQQLSRYRGLCLLASVPSCVEDLSHPVAEPGSSQAGSISNTGPRALSSGPASPKRKLEAAEEPPGEELTKRARVTEMPTQEPASKDS
# Variants of: B1
# Details: with per2_mouse Per2, O54943
# Chain of per2_mouse Per2, O54943 (O54943 whole entry): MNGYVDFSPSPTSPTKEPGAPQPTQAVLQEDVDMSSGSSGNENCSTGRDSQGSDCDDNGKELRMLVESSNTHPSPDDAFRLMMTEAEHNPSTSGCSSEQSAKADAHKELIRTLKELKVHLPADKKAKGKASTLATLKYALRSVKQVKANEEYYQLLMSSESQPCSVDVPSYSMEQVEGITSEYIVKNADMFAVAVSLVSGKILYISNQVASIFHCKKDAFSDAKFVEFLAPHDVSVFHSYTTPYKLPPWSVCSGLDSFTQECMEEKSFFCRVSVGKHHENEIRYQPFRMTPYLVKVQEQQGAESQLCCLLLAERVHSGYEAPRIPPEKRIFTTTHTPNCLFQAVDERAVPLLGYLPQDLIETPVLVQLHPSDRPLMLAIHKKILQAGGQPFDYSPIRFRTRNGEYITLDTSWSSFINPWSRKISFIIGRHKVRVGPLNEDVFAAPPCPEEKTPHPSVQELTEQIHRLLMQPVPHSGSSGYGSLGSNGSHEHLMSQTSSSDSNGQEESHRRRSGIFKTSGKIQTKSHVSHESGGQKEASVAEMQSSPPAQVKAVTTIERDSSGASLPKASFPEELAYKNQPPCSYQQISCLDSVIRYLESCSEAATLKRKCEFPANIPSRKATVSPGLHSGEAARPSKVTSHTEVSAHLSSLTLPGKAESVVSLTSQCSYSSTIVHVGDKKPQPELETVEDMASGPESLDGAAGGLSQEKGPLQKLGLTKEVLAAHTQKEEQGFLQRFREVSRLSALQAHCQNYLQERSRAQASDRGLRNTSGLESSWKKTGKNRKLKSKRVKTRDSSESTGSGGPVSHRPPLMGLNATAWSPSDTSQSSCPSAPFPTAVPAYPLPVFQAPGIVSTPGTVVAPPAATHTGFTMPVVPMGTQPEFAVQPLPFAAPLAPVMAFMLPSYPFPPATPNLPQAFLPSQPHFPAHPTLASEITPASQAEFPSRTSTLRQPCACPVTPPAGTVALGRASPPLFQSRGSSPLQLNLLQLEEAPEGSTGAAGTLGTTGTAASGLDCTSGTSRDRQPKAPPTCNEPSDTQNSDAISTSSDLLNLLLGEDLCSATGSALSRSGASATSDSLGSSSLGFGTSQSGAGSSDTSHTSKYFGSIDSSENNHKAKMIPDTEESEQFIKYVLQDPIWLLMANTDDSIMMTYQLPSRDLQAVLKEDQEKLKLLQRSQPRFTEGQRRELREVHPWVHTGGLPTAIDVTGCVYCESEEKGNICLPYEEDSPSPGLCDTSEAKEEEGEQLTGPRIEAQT
row,effect of a mutation on the interaction,Variant
1,decreasing interaction,L497P;I499T;R501Q;I505T;L509P
2,decreasing interaction,I499T;K503R;I505T;L509P
3,decreasing interaction,S495G;L497P;I499T;K503R;I505T;L509P
4,decreasing interaction,E493G;L497P;K503R;I505T;L509P
5,decreasing interaction,R501Q;K503R
6,decreasing interaction,S495G;L497P;I499T;R501Q;K503R;I505T;L509P
7,decreasing interaction,I499T;R501Q;I505T;L509P
8,decreasing interaction,I499T;R501Q
